Consider 20 molecules from patent US20210388087A1 (Chugai, published 2021).

The chains are these.
B1: H183/L072 VH A54K (antibody, name in Kabat numbering, V domains shown)
VH: QVQLVESGGGLVQPGRSLRLSCAASGFTFSNAWMHWVRQAPGKGLEWVAQIKDKGNKYAAYYAPSVKGRFTISRDDSKNSIYLQMNSLKTEDTAVYYCHYVHYASASTVLPAFGVDAWGQGTTVTVSS
VL: DIVMTQSPLSLPVTPGEPASISCQASQELVHMNRNTYLHWYQQKPGQAPRLLIYKVSNRFPGVPDRFSGSGSGTDFTLKISRVEAEDVGVYYCAQGTSVPFTFGQGTKLEIK
B2: H183/L072 VH A56N (antibody, name in Kabat numbering, V domains shown)
VH: QVQLVESGGGLVQPGRSLRLSCAASGFTFSNAWMHWVRQAPGKGLEWVAQIKDKGNAYNAYYAPSVKGRFTISRDDSKNSIYLQMNSLKTEDTAVYYCHYVHYASASTVLPAFGVDAWGQGTTVTVSS
VL: DIVMTQSPLSLPVTPGEPASISCQASQELVHMNRNTYLHWYQQKPGQAPRLLIYKVSNRFPGVPDRFSGSGSGTDFTLKISRVEAEDVGVYYCAQGTSVPFTFGQGTKLEIK
B3: H183/L072 VH A54N (antibody, name in Kabat numbering, V domains shown)
VH: QVQLVESGGGLVQPGRSLRLSCAASGFTFSNAWMHWVRQAPGKGLEWVAQIKDKGNNYAAYYAPSVKGRFTISRDDSKNSIYLQMNSLKTEDTAVYYCHYVHYASASTVLPAFGVDAWGQGTTVTVSS
VL: DIVMTQSPLSLPVTPGEPASISCQASQELVHMNRNTYLHWYQQKPGQAPRLLIYKVSNRFPGVPDRFSGSGSGTDFTLKISRVEAEDVGVYYCAQGTSVPFTFGQGTKLEIK
B4: H183/L072 VH A56G (antibody, name in Kabat numbering, V domains shown)
VH: QVQLVESGGGLVQPGRSLRLSCAASGFTFSNAWMHWVRQAPGKGLEWVAQIKDKGNAYGAYYAPSVKGRFTISRDDSKNSIYLQMNSLKTEDTAVYYCHYVHYASASTVLPAFGVDAWGQGTTVTVSS
VL: DIVMTQSPLSLPVTPGEPASISCQASQELVHMNRNTYLHWYQQKPGQAPRLLIYKVSNRFPGVPDRFSGSGSGTDFTLKISRVEAEDVGVYYCAQGTSVPFTFGQGTKLEIK
B5: H183/L072 VH A54Q (antibody, name in Kabat numbering, V domains shown)
VH: QVQLVESGGGLVQPGRSLRLSCAASGFTFSNAWMHWVRQAPGKGLEWVAQIKDKGNQYAAYYAPSVKGRFTISRDDSKNSIYLQMNSLKTEDTAVYYCHYVHYASASTVLPAFGVDAWGQGTTVTVSS
VL: DIVMTQSPLSLPVTPGEPASISCQASQELVHMNRNTYLHWYQQKPGQAPRLLIYKVSNRFPGVPDRFSGSGSGTDFTLKISRVEAEDVGVYYCAQGTSVPFTFGQGTKLEIK
B6: H183/L072 VH A56K (antibody, name in Kabat numbering, V domains shown)
VH: QVQLVESGGGLVQPGRSLRLSCAASGFTFSNAWMHWVRQAPGKGLEWVAQIKDKGNAYKAYYAPSVKGRFTISRDDSKNSIYLQMNSLKTEDTAVYYCHYVHYASASTVLPAFGVDAWGQGTTVTVSS
VL: DIVMTQSPLSLPVTPGEPASISCQASQELVHMNRNTYLHWYQQKPGQAPRLLIYKVSNRFPGVPDRFSGSGSGTDFTLKISRVEAEDVGVYYCAQGTSVPFTFGQGTKLEIK
B7: H183/L072 VH A56I (antibody, name in Kabat numbering, V domains shown)
VH: QVQLVESGGGLVQPGRSLRLSCAASGFTFSNAWMHWVRQAPGKGLEWVAQIKDKGNAYIAYYAPSVKGRFTISRDDSKNSIYLQMNSLKTEDTAVYYCHYVHYASASTVLPAFGVDAWGQGTTVTVSS
VL: DIVMTQSPLSLPVTPGEPASISCQASQELVHMNRNTYLHWYQQKPGQAPRLLIYKVSNRFPGVPDRFSGSGSGTDFTLKISRVEAEDVGVYYCAQGTSVPFTFGQGTKLEIK
B8: H183/L072 VH A54R (antibody, name in Kabat numbering, V domains shown)
VH: QVQLVESGGGLVQPGRSLRLSCAASGFTFSNAWMHWVRQAPGKGLEWVAQIKDKGNRYAAYYAPSVKGRFTISRDDSKNSIYLQMNSLKTEDTAVYYCHYVHYASASTVLPAFGVDAWGQGTTVTVSS
VL: DIVMTQSPLSLPVTPGEPASISCQASQELVHMNRNTYLHWYQQKPGQAPRLLIYKVSNRFPGVPDRFSGSGSGTDFTLKISRVEAEDVGVYYCAQGTSVPFTFGQGTKLEIK
B9: H183/L072 VH A54T (antibody, name in Kabat numbering, V domains shown)
VH: QVQLVESGGGLVQPGRSLRLSCAASGFTFSNAWMHWVRQAPGKGLEWVAQIKDKGNTYAAYYAPSVKGRFTISRDDSKNSIYLQMNSLKTEDTAVYYCHYVHYASASTVLPAFGVDAWGQGTTVTVSS
VL: DIVMTQSPLSLPVTPGEPASISCQASQELVHMNRNTYLHWYQQKPGQAPRLLIYKVSNRFPGVPDRFSGSGSGTDFTLKISRVEAEDVGVYYCAQGTSVPFTFGQGTKLEIK
B10: H183/L072 VH A56M (antibody, name in Kabat numbering, V domains shown)
VH: QVQLVESGGGLVQPGRSLRLSCAASGFTFSNAWMHWVRQAPGKGLEWVAQIKDKGNAYMAYYAPSVKGRFTISRDDSKNSIYLQMNSLKTEDTAVYYCHYVHYASASTVLPAFGVDAWGQGTTVTVSS
VL: DIVMTQSPLSLPVTPGEPASISCQASQELVHMNRNTYLHWYQQKPGQAPRLLIYKVSNRFPGVPDRFSGSGSGTDFTLKISRVEAEDVGVYYCAQGTSVPFTFGQGTKLEIK
B11: H183/L072 VH A56L (antibody, name in Kabat numbering, V domains shown)
VH: QVQLVESGGGLVQPGRSLRLSCAASGFTFSNAWMHWVRQAPGKGLEWVAQIKDKGNAYLAYYAPSVKGRFTISRDDSKNSIYLQMNSLKTEDTAVYYCHYVHYASASTVLPAFGVDAWGQGTTVTVSS
VL: DIVMTQSPLSLPVTPGEPASISCQASQELVHMNRNTYLHWYQQKPGQAPRLLIYKVSNRFPGVPDRFSGSGSGTDFTLKISRVEAEDVGVYYCAQGTSVPFTFGQGTKLEIK
B12: H183/L072 VH A54M (antibody, name in Kabat numbering, V domains shown)
VH: QVQLVESGGGLVQPGRSLRLSCAASGFTFSNAWMHWVRQAPGKGLEWVAQIKDKGNMYAAYYAPSVKGRFTISRDDSKNSIYLQMNSLKTEDTAVYYCHYVHYASASTVLPAFGVDAWGQGTTVTVSS
VL: DIVMTQSPLSLPVTPGEPASISCQASQELVHMNRNTYLHWYQQKPGQAPRLLIYKVSNRFPGVPDRFSGSGSGTDFTLKISRVEAEDVGVYYCAQGTSVPFTFGQGTKLEIK
B13: H183/L072 VH A56E (antibody, name in Kabat numbering, V domains shown)
VH: QVQLVESGGGLVQPGRSLRLSCAASGFTFSNAWMHWVRQAPGKGLEWVAQIKDKGNAYEAYYAPSVKGRFTISRDDSKNSIYLQMNSLKTEDTAVYYCHYVHYASASTVLPAFGVDAWGQGTTVTVSS
VL: DIVMTQSPLSLPVTPGEPASISCQASQELVHMNRNTYLHWYQQKPGQAPRLLIYKVSNRFPGVPDRFSGSGSGTDFTLKISRVEAEDVGVYYCAQGTSVPFTFGQGTKLEIK
B14: H183/L072 VH A56D (antibody, name in Kabat numbering, V domains shown)
VH: QVQLVESGGGLVQPGRSLRLSCAASGFTFSNAWMHWVRQAPGKGLEWVAQIKDKGNAYDAYYAPSVKGRFTISRDDSKNSIYLQMNSLKTEDTAVYYCHYVHYASASTVLPAFGVDAWGQGTTVTVSS
VL: DIVMTQSPLSLPVTPGEPASISCQASQELVHMNRNTYLHWYQQKPGQAPRLLIYKVSNRFPGVPDRFSGSGSGTDFTLKISRVEAEDVGVYYCAQGTSVPFTFGQGTKLEIK
B15: H183/L072 VH A54V (antibody, name in Kabat numbering, V domains shown)
VH: QVQLVESGGGLVQPGRSLRLSCAASGFTFSNAWMHWVRQAPGKGLEWVAQIKDKGNVYAAYYAPSVKGRFTISRDDSKNSIYLQMNSLKTEDTAVYYCHYVHYASASTVLPAFGVDAWGQGTTVTVSS
VL: DIVMTQSPLSLPVTPGEPASISCQASQELVHMNRNTYLHWYQQKPGQAPRLLIYKVSNRFPGVPDRFSGSGSGTDFTLKISRVEAEDVGVYYCAQGTSVPFTFGQGTKLEIK
B16: H183/L072 VH A54L (antibody, name in Kabat numbering, V domains shown)
VH: QVQLVESGGGLVQPGRSLRLSCAASGFTFSNAWMHWVRQAPGKGLEWVAQIKDKGNLYAAYYAPSVKGRFTISRDDSKNSIYLQMNSLKTEDTAVYYCHYVHYASASTVLPAFGVDAWGQGTTVTVSS
VL: DIVMTQSPLSLPVTPGEPASISCQASQELVHMNRNTYLHWYQQKPGQAPRLLIYKVSNRFPGVPDRFSGSGSGTDFTLKISRVEAEDVGVYYCAQGTSVPFTFGQGTKLEIK
B17: H183/L072 VH A54S (antibody, name in Kabat numbering, V domains shown)
VH: QVQLVESGGGLVQPGRSLRLSCAASGFTFSNAWMHWVRQAPGKGLEWVAQIKDKGNSYAAYYAPSVKGRFTISRDDSKNSIYLQMNSLKTEDTAVYYCHYVHYASASTVLPAFGVDAWGQGTTVTVSS
VL: DIVMTQSPLSLPVTPGEPASISCQASQELVHMNRNTYLHWYQQKPGQAPRLLIYKVSNRFPGVPDRFSGSGSGTDFTLKISRVEAEDVGVYYCAQGTSVPFTFGQGTKLEIK
B18: H183/L072 VH A54W (antibody, name in Kabat numbering, V domains shown)
VH: QVQLVESGGGLVQPGRSLRLSCAASGFTFSNAWMHWVRQAPGKGLEWVAQIKDKGNWYAAYYAPSVKGRFTISRDDSKNSIYLQMNSLKTEDTAVYYCHYVHYASASTVLPAFGVDAWGQGTTVTVSS
VL: DIVMTQSPLSLPVTPGEPASISCQASQELVHMNRNTYLHWYQQKPGQAPRLLIYKVSNRFPGVPDRFSGSGSGTDFTLKISRVEAEDVGVYYCAQGTSVPFTFGQGTKLEIK
B19: H183/L072 VH A56H (antibody, name in Kabat numbering, V domains shown)
VH: QVQLVESGGGLVQPGRSLRLSCAASGFTFSNAWMHWVRQAPGKGLEWVAQIKDKGNAYHAYYAPSVKGRFTISRDDSKNSIYLQMNSLKTEDTAVYYCHYVHYASASTVLPAFGVDAWGQGTTVTVSS
VL: DIVMTQSPLSLPVTPGEPASISCQASQELVHMNRNTYLHWYQQKPGQAPRLLIYKVSNRFPGVPDRFSGSGSGTDFTLKISRVEAEDVGVYYCAQGTSVPFTFGQGTKLEIK
B20: H183/L072 VH A54Y (antibody, name in Kabat numbering, V domains shown)
VH: QVQLVESGGGLVQPGRSLRLSCAASGFTFSNAWMHWVRQAPGKGLEWVAQIKDKGNYYAAYYAPSVKGRFTISRDDSKNSIYLQMNSLKTEDTAVYYCHYVHYASASTVLPAFGVDAWGQGTTVTVSS
VL: DIVMTQSPLSLPVTPGEPASISCQASQELVHMNRNTYLHWYQQKPGQAPRLLIYKVSNRFPGVPDRFSGSGSGTDFTLKISRVEAEDVGVYYCAQGTSVPFTFGQGTKLEIK

T1 sequence (chain, as listed by the source limits assumed): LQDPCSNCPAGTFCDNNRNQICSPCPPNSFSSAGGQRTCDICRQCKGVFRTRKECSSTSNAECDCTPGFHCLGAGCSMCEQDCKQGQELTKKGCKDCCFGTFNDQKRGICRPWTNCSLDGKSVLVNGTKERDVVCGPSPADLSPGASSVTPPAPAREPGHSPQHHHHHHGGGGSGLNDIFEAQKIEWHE

This assay has as its target T1, Human CD137 ECD (human).
T1 construct: also called 4-1BB
Description: single mutant vs template dBBDu183H.
For B1, the “fold change of affinity” value came to 0.9 fold. Consider B2, for which the “fold change of affinity” value is 0.7 fold.

For the molecule B3, the “fold change of affinity” value worked out at 1.1 fold. On to B4, for which the “fold change of affinity” value stood at 0.6 fold. B5: the “fold change of affinity” value stood at 1 fold.

Take B6: the “fold change of affinity” value amounted to 0.8 fold.

As to B7, the “fold change of affinity” value turned out to be 0.2 fold. In the case of B8, the “fold change of affinity” value turned out to be 0.9 fold. In the case of B9, the “fold change of affinity” value was found to be 0.3 fold. On to B10, for which the “fold change of affinity” value is 0.7 fold.

Take B11: the “fold change of affinity” value turned out to be 0.5 fold.

With B12, the “fold change of affinity” value was 1 fold.

As to B13, the “fold change of affinity” value was 0.5 fold. Consider B14, for which the “fold change of affinity” value was 0.3 fold. Turning to B15, the “fold change of affinity” value is 0.5 fold. As to B16, the “fold change of affinity” value is 1 fold. The figure for B17 is 0.9 fold; for B18 it is 0.8 fold; for B19 it is 0.6 fold. Consider B20, for which the “fold change of affinity” value stood at 0.9 fold.
